This experiment relates to human foreskin fibroblasts. The experiment can be described thus: Ligand stimulated [3H]thymidine incorporation. The format is cell-based. The source says:
The possible role of peptide 16T as an antagonist for PDGF activity in vivo was investigated. Following the methodology of Betsholtz et al., J. Cell Physiol 118: 203-210 (1984), the disclosure of which is incorporated by reference, [^3 H] thymidine incorporation by human fibroblasts in the presence of various peptides was studied.

B1: PDGF-BB: platelet derived growth factor B chain homodimer (protein, UniProt P01127 82-190, looked up)
Platelet-derived growth …: SLGSLTIAEPAMIAECKTRTEVFEISRRLIDRTNANFLVWPPCVEVQRCSGCCNNRNVQCRPTQVQLRPVQVRKIEIVRKKPIFKKATVTLEDHLACKCETVAAARPVT
As for B1, the “[3H]thymidine incorporation, ligand alone” value (no peptide (unstimulated control 483 cpm), mean of duplicates) is 1918 cpm. Besides, the “Stimulation of [3H]thymidine incorporation by ligand” value (no peptide, versus unstimulated control) is recorded as 4 fold.

Values taken from US5444151A, “Platelet derived growth factor antagonists” (Ludwig Institute for Cancer Research, priority 1992, dated 1995).
